Test results taken from US20190153065A1 (published 2019).
Blank lines part the entries; values can stand above or below the binder they belong to.

How the values were obtained:
[1] = biological target: PD-L1 mutant D49R (mouse PD-L1-mCherry fusion) (mouse, UniProt Q9EP73 19-290); assay: FACS titration; avid
[2] = biological target: PD-L1 mutant R125A (mouse PD-L1-mCherry fusion) (mouse, UniProt Q9EP73 19-290); assay: FACS titration; avid
[3] = biological target: PD-L1 mutant G119D (mouse PD-L1-mCherry fusion) (mouse, UniProt Q9EP73 19-290); assay: FACS titration; avid
Sequence of PD-L1 mutant G119D (mouse PD-L1-mCherry fusion) (Q9EP73 19-290 G119D): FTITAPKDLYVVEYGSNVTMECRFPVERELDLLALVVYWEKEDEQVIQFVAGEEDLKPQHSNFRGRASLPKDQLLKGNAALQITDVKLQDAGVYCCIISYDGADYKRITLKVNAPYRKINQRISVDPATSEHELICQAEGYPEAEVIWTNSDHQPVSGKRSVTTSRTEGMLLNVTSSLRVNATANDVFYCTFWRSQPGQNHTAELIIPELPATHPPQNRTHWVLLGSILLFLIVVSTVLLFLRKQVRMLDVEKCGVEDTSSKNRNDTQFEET

[4] = biological target: PD-L1 mutant G120D (mouse PD-L1-mCherry fusion) (mouse, UniProt Q9EP73 19-290); assay: FACS titration; avid
Sequence of PD-L1 mutant G120D (mouse PD-L1-mCherry fusion) (Q9EP73 19-290 G120D): as the sequence (Q9EP73 19-290 G119D) above, with D101G, G102D counted along it

[5] = biological target: PD-L1 mutant K124A (mouse PD-L1-mCherry fusion) (mouse, UniProt Q9EP73 19-290); assay: FACS titration; avid
Sequence of PD-L1 mutant K124A (mouse PD-L1-mCherry fusion) (Q9EP73 19-290 K124A): as the sequence (Q9EP73 19-290 G119D) above, with D101G, K106A counted along it

[6] = biological target: T1, wild-type mouse PD-L1 mCherry (full-length mouse PD-L1 with C-terminal mCherry, on HEK 293 cells) (mouse, UniProt Q9EP73 19-290); assay: FACS
T1 sequence (Q9EP73 19-290): as the sequence (Q9EP73 19-290 G119D) above, with D101G counted along it

[7] = biological target: PD-L1 mutant Y56A (mouse PD-L1-mCherry fusion) (mouse, UniProt Q9EP73 19-290); assay: FACS
Sequence of PD-L1 mutant Y56A (mouse PD-L1-mCherry fusion) (Q9EP73 19-290 Y56A): as the sequence (Q9EP73 19-290 G119D) above, with Y38A, D101G counted along it

D28R = assay: FACS titration; avid
[8] = biological target: T1, wild-type mouse PD-L1 mCherry …; assay: FACS titration; avid
[9] = biological target: PD-L1 mutant Y123R (mouse PD-L1-mCherry fusion) (mouse, UniProt Q9EP73 19-290); assay: FACS titration; avid
Sequence of PD-L1 mutant Y123R (mouse PD-L1-mCherry fusion) (Q9EP73 19-290 Y123R): as the sequence (Q9EP73 19-290 G119D) above, with D101G, Y105R counted along it

[10] = biological target: PD-L1 mutant D122A (mouse PD-L1-mCherry fusion) (mouse, UniProt Q9EP73 19-290); assay: FACS titration; avid
Sequence of PD-L1 mutant D122A (mouse PD-L1-mCherry fusion) (Q9EP73 19-290 D122A): as the sequence (Q9EP73 19-290 G119D) above, with D101G, D104A counted along it

Sequence of PD-L1 mutant R125A (mouse PD-L1-mCherry fusion) (Q9EP73 19-290 R125A): as the sequence (Q9EP73 19-290 G119D) above, with D101G, R107A counted along it
Sequence of PD-L1 mutant D49R (mouse PD-L1-mCherry fusion) (Q9EP73 19-290 D49R): as the sequence (Q9EP73 19-290 G119D) above, with D31R, D101G counted along it

B2: PD-1 (Fc fusion)
chain (part 1 of 2): LEVPNGPWRSLTFYPAWLTVSEGANATFTCSLSNWSEDLMLNWNRLSPSNQTEKQAAFCNGLSQPVQDARFQIIQLPNRHDFHMNILDTRRNDSGIYLCGAISLHPKAKIEESPGAELVVTERILETSTRYPSPSPKPEGRFQ
chain (part 2 of 2): HHHHHHHHHH
- EC50 (D28R): 2.6 nM

B4: B7-1 (Fc fusion)
chain: DVDEQLSKSVKDKVLLPCRYNSPHEDESEDRIYWQKHDKVVLSVIAGKLKVWPEYKNRTLYDNTTYSLIILGLVLSDRGTYSCVVQKKERGTYEVKHLALVKLSIKADFSTPNITESGNPSADTKRITCFASGGFPKPRFSWLENGRELPGINTTISQDPESELYTISSQLDFNTTRNHTIKCLIKYGDAHVSEDFTWEKPPEDPPDSK
modifications: C-terminal mIgG2a Fc-10×His (dimerising carrier), not in the letters
- EC50 (D28R): 18.8 nM

The next lines start with the values.

- EC50 [1]: 1.8 nM
- EC50 [2]: 38.8 nM
- EC50 [3]: 2 nM
- EC50 [4]: 2.8 nM
- EC50 [5]: 42.9 nM
- EC50 [6]: 1.8 nM
- EC50 [7]: 1.9 nM
B1: wild-type mPD-1 Fc (residues L25-Q167, mIgG2a-10×His) (Fc fusion)
chain (part 1 of 2): LEVPNGPWRSLTFYPAWLTVSEGANATFTCSLSNWSEDLMLNWNRLSPSNQTEKQAAFCNGLSQPVQDARFQIIQLPNRHDFHMNILDTRRNDSGIYLCGAISLHPKAKIEESPGAELVVTERILETSTRYPSPSPKPEGRFQ
chain (part 2 of 2): HHHHHHHHHH

- EC50 [8]: 39.2 nM
- EC50 [2]: 20.2 nM
- EC50 [5]: 54.9 nM
- EC50 [9]: 7.7 nM
- EC50 [10]: 68.2 nM
B3: wild-type mB7-1 Fc (residues D37-K245, mIgG2a-10×His) (Fc fusion)
chain: DVDEQLSKSVKDKVLLPCRYNSPHEDESEDRIYWQKHDKVVLSVIAGKLKVWPEYKNRTLYDNTTYSLIILGLVLSDRGTYSCVVQKKERGTYEVKHLALVKLSIKADFSTPNITESGNPSADTKRITCFASGGFPKPRFSWLENGRELPGINTTISQDPESELYTISSQLDFNTTRNHTIKCLIKYGDAHVSEDFTWEKPPEDPPDSK
modifications: C-terminal mIgG2a Fc-10×His (dimerising carrier), not in the letters
